Laboratory results: paper PMC9515155

Tests used:
[1] = biological target: human IgE (Calbiochem) (human); assay: SPR; details: Fc fusion
[2] = biological target: IgE_(TRAP) (human) (UniProt P12319); assay: SPR; ProteOn XPR36, GLC chip; 500 RU of IgE_(TRAP) immobilised in acetate buffer pH 4.0 (850 RU of omalizumab at pH 5.5); human IgE flowed over; PBS with 0.005% Tween-20, 30 μL/min

Chain of human IgE (Calbiochem) (natural protein) (P01854 whole entry): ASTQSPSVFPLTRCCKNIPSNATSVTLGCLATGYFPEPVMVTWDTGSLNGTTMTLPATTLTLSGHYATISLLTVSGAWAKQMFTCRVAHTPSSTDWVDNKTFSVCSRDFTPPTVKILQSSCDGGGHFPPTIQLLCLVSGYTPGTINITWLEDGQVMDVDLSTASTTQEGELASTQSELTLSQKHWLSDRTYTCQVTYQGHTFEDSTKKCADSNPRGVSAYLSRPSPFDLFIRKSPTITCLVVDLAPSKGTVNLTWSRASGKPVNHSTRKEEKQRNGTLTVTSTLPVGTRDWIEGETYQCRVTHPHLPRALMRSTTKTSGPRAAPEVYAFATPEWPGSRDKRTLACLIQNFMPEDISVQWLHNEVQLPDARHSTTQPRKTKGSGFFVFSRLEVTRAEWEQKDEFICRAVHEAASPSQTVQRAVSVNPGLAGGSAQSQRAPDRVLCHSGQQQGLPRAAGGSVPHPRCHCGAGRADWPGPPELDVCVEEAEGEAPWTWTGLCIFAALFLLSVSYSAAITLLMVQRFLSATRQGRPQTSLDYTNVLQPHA
Chain of human IgE (Calbiochem) (human) (P01854 whole entry, the tested form may be a part): as the sequence (P01854 whole entry) above

Kd [1] [nM]	koff [1] [s⁻¹]	fold higher binding affinity than omalizumab [2] [fold]	fold lower association rate constant (Ka) than omalizumab [2] [fold]	fold lower dissociation rate constant (Kd) than omalizumab [2] [fold]	Substance
0.215	5.69e-05				IgE_(TRAP) (from UniProt P12319 25-205; P01880 133-170; P01861 121-327)
		69	1.5	105	human IgE (Calbiochem) (natural protein)
